The results in this text go back to patent US7101542.

The target in experiment [1] is DT390IL-4 fusion protein (murine) (UniProt P00588). The experiment can be described thus: cell-based or functional assay.
Experiment [2] concerns the target IL-4 receptor (IL-4R) on C1498 tumor cells (UniProt P16382). The experiment can be described thus: cell-based or functional assay.
Chain of UniProt P16382 (P16382 26-810 limits assumed): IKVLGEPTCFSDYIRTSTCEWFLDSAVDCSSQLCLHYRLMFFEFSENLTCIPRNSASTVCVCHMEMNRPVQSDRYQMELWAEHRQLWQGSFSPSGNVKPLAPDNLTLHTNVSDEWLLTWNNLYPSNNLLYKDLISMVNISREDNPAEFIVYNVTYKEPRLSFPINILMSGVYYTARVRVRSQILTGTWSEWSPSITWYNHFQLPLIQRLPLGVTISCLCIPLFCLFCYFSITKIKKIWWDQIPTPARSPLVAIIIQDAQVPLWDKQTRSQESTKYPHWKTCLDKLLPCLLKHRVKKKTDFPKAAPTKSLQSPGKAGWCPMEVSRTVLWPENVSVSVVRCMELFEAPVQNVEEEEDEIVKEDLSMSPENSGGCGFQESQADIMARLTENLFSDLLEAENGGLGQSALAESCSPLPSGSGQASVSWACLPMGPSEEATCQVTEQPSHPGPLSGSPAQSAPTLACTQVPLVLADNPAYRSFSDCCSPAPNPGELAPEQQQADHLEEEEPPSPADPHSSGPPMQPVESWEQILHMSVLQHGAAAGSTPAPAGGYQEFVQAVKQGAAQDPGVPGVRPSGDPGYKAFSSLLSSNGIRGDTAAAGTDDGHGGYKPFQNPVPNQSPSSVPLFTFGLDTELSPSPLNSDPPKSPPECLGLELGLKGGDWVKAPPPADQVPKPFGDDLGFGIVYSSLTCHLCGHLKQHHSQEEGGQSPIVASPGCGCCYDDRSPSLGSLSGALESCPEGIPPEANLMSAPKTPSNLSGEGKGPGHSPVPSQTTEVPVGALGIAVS

Chain of UniProt P00588 (P00588 33-390, tags or fused parts left off): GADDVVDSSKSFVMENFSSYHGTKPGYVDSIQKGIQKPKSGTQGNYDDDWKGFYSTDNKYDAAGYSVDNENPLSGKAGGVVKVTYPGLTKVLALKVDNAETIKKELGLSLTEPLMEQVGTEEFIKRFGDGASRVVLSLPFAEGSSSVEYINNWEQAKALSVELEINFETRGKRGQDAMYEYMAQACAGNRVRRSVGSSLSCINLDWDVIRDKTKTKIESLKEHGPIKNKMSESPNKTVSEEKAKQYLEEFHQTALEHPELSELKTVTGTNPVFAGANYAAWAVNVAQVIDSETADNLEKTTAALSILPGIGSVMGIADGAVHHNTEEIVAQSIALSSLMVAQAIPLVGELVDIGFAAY

In the case of “rat IgG1 anti-mouse IL-4 monoclonal antibody (Clone 11B11)”, the blocking of C1498 killing by DT390IL-4 in experiment [1] amounted to 20 µM. In experiment [2], “DT390IL-4 fusion protein (from UniProt P00588 33-390; P07750 21-140)” displayed a viability of C1498 cells of 10 nM and a viability of IL-4R+ C1498 leukemia cells (trypan blue, live cell count) of 1 nM.
